Measurements as given in patent publication US20140309404A1 (Eli Lilly, published 2014).
Blank lines part the entries; values can stand above or below the binder they belong to.

Tests used:
human BMP-6 [1] = molecular target: T1, human BMP-6 (human, UniProt P22004 382-513, limits assumed); test: cell-based or functional assay
T1 sequence: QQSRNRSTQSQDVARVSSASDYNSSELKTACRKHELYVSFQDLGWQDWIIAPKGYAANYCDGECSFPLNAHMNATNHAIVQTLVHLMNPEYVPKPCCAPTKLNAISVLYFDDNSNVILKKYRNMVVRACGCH

human BMP-6 [2] = molecular target: T1, human BMP-6; test: SPR (BIAcore), BMP-6 immobilised on CM4 chip, antibody injected, 37 C
human BMP-7 = molecular target: T2, human BMP-7 (human, UniProt P18075 293-431); test: SPR (BIAcore), BMP immobilised on CM4 chip, antibody injected, 37 C
T2 sequence (looked up): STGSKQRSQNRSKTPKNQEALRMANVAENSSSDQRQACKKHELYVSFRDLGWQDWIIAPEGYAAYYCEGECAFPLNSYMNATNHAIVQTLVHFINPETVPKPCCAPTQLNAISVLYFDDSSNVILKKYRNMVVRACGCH

human BMP-5 = molecular target: T3, human BMP-5 (human, UniProt P22003 317-454, limits assumed); test: as above
T3 sequence (looked up): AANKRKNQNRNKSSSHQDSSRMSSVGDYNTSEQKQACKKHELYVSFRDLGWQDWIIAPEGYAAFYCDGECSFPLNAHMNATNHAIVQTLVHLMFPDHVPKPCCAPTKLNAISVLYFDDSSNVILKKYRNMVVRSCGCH

human BMP-6 [3] = molecular target: T1, human BMP-6; test: cell-based or functional assay; remark: listed apart in the source
human BMP-6 [4] = molecular target: T1, human BMP-6; test: SPR (BIAcore), ratio of KD against MAB507, 37 C
rat BMP-6 = molecular target: T4, rat BMP-6 (rat, UniProt Q04906 368-506, limits assumed); test: SPR (BIAcore), Fab on rat BMP-6, 37 C
T4 sequence (looked up): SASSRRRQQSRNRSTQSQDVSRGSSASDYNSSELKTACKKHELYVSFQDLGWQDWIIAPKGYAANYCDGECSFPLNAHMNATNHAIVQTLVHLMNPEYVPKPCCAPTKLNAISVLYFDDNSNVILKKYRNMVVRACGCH

Cynomolgus monkey BMP-6 = molecular target: T5, Cynomolgus monkey BMP-6 (cynomolgus monkey); test: SPR (BIAcore), Fab on cynomolgus monkey BMP-6, 37 C
T5 construct: also called Cyno Monkey BMP-6

human BMP-6 [5] = molecular target: T1, human BMP-6; test: SPR (BIAcore), Fab on human BMP-6, 37 C
human BMP-6 [6] = molecular target: T1, human BMP-6; test: SPR (BIAcore), Fab on human BMP-6, 37 C; remark: listed apart in the source

- fold potency against MAB507 in inhibition of BMP-6-induced hepcidin promoter luciferase activity (human BMP-6 [1]): ~22 fold
- Kd (human BMP-6 [2]): 0.02 nM
- koff (human BMP-6 [2]): 4.05e-05 s⁻¹
- kon (human BMP-6 [2]): 1.73e+06 M⁻¹ s⁻¹
- Geometric Mean IC50 (nM), BMP-6 induced Hep_Luc Assay (hepcidin promoter luciferase, HepProm_Luc cells) (human BMP-6 [3]): 0.99 nM
- fold higher affinity than MAB507 (human BMP-6 [4]): 50 fold
B1: Antibody I (antibody, human IgG4 S228P, kappa, F234A L235A, V domains shown)
VH: QVQLVQSGAEVKKPGSSVKVSCKASGYTFTSYAMHWVRQAPGQGLEWMGYINPYNDGTKYNENFKGRVTITADESTSTAYMELSSLRSEDTAVYYCARRPFGNAMDIWGQGTLVTVSS
VL: DIQMTQSPSSLSASVGDRVTITCRSSENIYRNLAWYQQKPGKAPKLLIYAATNLADGVPSRFSGSGSGTDFTLTISSLQPEDFATYYCQGIWGTPLTFGGGTKVEIKR
notes: Engineered antibody with human frameworks and constant regions
- binding result (human BMP-7): no binding (tested: up to 1000 nM antibody)
- binding result (human BMP-5): no binding (tested: up to 1000 nM antibody)

- Kd (rat BMP-6): 0.088 nM
- koff (rat BMP-6): 0.0003 s⁻¹
- kon (rat BMP-6): 4.1e+06 M⁻¹ s⁻¹
- Kd (Cynomolgus monkey BMP-6): 0.0796 nM
- koff (Cynomolgus monkey BMP-6): 0.00028 s⁻¹
- kon (Cynomolgus monkey BMP-6): 4.1e+06 M⁻¹ s⁻¹
- Kd (human BMP-6 [5]): 0.0845 nM
- koff (human BMP-6 [5]): 0.00028 s⁻¹
- kon (human BMP-6 [5]): 3.7e+06 M⁻¹ s⁻¹
- Kd (human BMP-6 [6]): 0.09 nM
- koff (human BMP-6 [6]): 0.00023 s⁻¹
- kon (human BMP-6 [6]): 2.5e+06 M⁻¹ s⁻¹
B2: Fab of Antibody I (Fab, V domains shown)
VH: QVQLVQSGAEVKKPGSSVKVSCKASGYTFTSYAMHWVRQAPGQGLEWMGYINPYNDGTKYNENFKGRVTITADESTSTAYMELSSLRSEDTAVYYCARRPFGNAMDIWGQGTLVTVSS
VL: DIQMTQSPSSLSASVGDRVTITCRSSENIYRNLAWYQQKPGKAPKLLIYAATNLADGVPSRFSGSGSGTDFTLTISSLQPEDFATYYCQGIWGTPLTFGGGTKVEIK
notes: These are the variable regions of Antibody I; also called Antibody I Fab

- fold potency against MAB507 in inhibition of BMP-6-induced hepcidin promoter luciferase activity (human BMP-6 [1]): ~22 fold
- Geometric Mean IC50 (nM), BMP-6 induced Hep_Luc Assay (hepcidin promoter luciferase, HepProm_Luc cells) (human BMP-6 [3]): 0.94 nM
B3: Antibody II (antibody, human IgG4 S228P, kappa, F234A L235A, V domains shown)
VH: QVQLVQSGAEVKKPGSSVKVSCKASGYTFTSYAMHWVRQAPGQGLEWMGYINPYNRGTKYNENFKGRVTITADESTSTAYMELSSLRSEDTAVYYCARRPFGNAMDIWGQGTLVTVSS
VL: DIQMTQSPSSLSASVGDRVTITCRSSENIYRNLAWYQQKPGKAPKLLIYAATNLADGVPSRFSGSGSGTDFTLTISSLQPEDFATYYCQGIWGTPLTFGGGTKVEIKR

- Kd (human BMP-6 [6]): 0.08 nM
- koff (human BMP-6 [6]): 0.00025 s⁻¹
- kon (human BMP-6 [6]): 3e+06 M⁻¹ s⁻¹
B4: Fab of Antibody II (Fab, V domains shown)
VH: QVQLVQSGAEVKKPGSSVKVSCKASGYTFTSYAMHWVRQAPGQGLEWMGYINPYNRGTKYNENFKGRVTITADESTSTAYMELSSLRSEDTAVYYCARRPFGNAMDIWGQGTLVTVSS
VL: DIQMTQSPSSLSASVGDRVTITCRSSENIYRNLAWYQQKPGKAPKLLIYAATNLADGVPSRFSGSGSGTDFTLTISSLQPEDFATYYCQGIWGTPLTFGGGTKVEIK
notes: These are the variable regions of Antibody II; also called Antibody II Fab
